Measured values taken from the FLAb antibody collection (doi:10.1101/2023.12.08.570889).
Numbering of substitutions follows the chain as printed.

B1: unnamed (protein)
chain 1: EVQLLESGGGLVQPGGSLRLSCAASGFTFSSYAMDWVRQAPGKGLEWVSGISSDGGSTVYADSVKGRFTISRDNSKNTLYLQMNSLRAEDTAVYYCARGGPAYYYAFDVWGQGTTVTVSS
chain 2: DIQMTQSPSSLSASVGDRVTITCQASQDISNYLNWYQQKPGKAPKLLIYDASNLETGVPSRFSGSGSGTDFTFTISSLQPEDIATYYCQQADSFPVTFGGGTKVEIK
B2: unnamed (protein)
chain 1: B1 chain 1 with S31Q, A33G, S52G, S53P, D54S, A97T, G99D, A102S, A106G
chain 2: B1 chain 2
B3: unnamed (protein)
chain 1: B1 chain 1 with S31Q, A33G, S52G, S53P, D54S, G99D, V109Y
chain 2: B1 chain 2
B4: unnamed (protein)
chain 1: B1 chain 1 with S31Q, A33G, S52G, S53P, D54S, A97T, A102S, Y103W
chain 2: B1 chain 2
B5: unnamed (protein)
chain 1: EVQLLESGGGLVQPGGSLRLSCAASGFTFSQYGMDWVRQAPGKGLEWVSGIGPSGGSTVYADSVKGRFTISRDNSKNTLYLQMNSLRAEDTAVYYCARRGRYGLYAMDYWGQGTTVTVSS
chain 2: B1 chain 2
B6: unnamed (protein)
chain 1: B5 chain 1 with A97T, R99D, R101P, Y102W, G103Y, L104Y, M107F, Y109V
chain 2: B1 chain 2
B7: unnamed (protein)
chain 1: B1 chain 1 with A106G
chain 2: B1 chain 2
B8: unnamed (protein)
chain 1: B5 chain 1 with R99D, R101S, Y102A, G103Y, L104Y, M107F, Y109V
chain 2: B1 chain 2
B9: unnamed (protein)
chain 1: B5 chain 1 with R99D, R101P, Y102S, G103Y, L104Y, M107F, Y109V
chain 2: B1 chain 2
B10: unnamed (protein)
chain 1: B5 chain 1 with A97T, R99G, R101P, G103Y, L104Y, A106G, Y109V
chain 2: B1 chain 2
B11: unnamed (protein)
chain 1: B1 chain 1 with A33G, A97T, G99D, A102S
chain 2: B1 chain 2
B12: unnamed (protein)
chain 1: B1 chain 1 with A33G, S53A, A97T
chain 2: B1 chain 2
B13: unnamed (protein)
chain 1: B5 chain 1 with A97T, R99D, R101P, Y102A, G103Y, L104Y, M107F, Y109I
chain 2: B1 chain 2
B14: unnamed (protein)
chain 1: B1 chain 1 with S31Q, A33G, S52G, S53P, D54S, G99D, A106G
chain 2: B1 chain 2
B15: unnamed (protein)
chain 1: B1 chain 1 with G99D, A102S
chain 2: B1 chain 2
B16: unnamed (protein)
chain 1: B1 chain 1 with A33G, A97T
chain 2: B1 chain 2
B17: unnamed (protein)
chain 1: B5 chain 1 with A97T, R99D, R101P, Y102A, G103W, L104Y, M107F
chain 2: B1 chain 2
B18: unnamed (protein)
chain 1: B1 chain 1 with A33G, A97T, G99D
chain 2: B1 chain 2
B19: unnamed (protein)
chain 1: B5 chain 1 with A97T, R99D, R101P, Y102A, G103Y, L104Y, M107F
chain 2: B1 chain 2

Each binder was assayed against FXI (assay: Kd (SPR)).

Row | Kd [nM] | Binder
1 | 635 | B1
2 | 95.3 | B2
3 | 106 | B3
4 | 210 | B4
5 | 2040 | B5
6 | 79.8 | B6
7 | 310 | B7
8 | 270 | B8
9 | 134 | B9
10 | 102 | B10
11 | 80.9 | B11
12 | 245 | B12
13 | 109 | B13
14 | 175 | B14
15 | 51.1 | B15
16 | 293 | B16
17 | 78.2 | B17
18 | 58 | B18
19 | 147 | B19
